Target: RPA heterotrimer (RPA70/RPA32/RPA14) (Homo sapiens) (UniProt P27694+P15927+P35244)
Test: EMSA

Chain of RPA heterotrimer (RPA70/RPA32/RPA14) (Homo sapiens) (P27694 whole entry, chain 1 of 3): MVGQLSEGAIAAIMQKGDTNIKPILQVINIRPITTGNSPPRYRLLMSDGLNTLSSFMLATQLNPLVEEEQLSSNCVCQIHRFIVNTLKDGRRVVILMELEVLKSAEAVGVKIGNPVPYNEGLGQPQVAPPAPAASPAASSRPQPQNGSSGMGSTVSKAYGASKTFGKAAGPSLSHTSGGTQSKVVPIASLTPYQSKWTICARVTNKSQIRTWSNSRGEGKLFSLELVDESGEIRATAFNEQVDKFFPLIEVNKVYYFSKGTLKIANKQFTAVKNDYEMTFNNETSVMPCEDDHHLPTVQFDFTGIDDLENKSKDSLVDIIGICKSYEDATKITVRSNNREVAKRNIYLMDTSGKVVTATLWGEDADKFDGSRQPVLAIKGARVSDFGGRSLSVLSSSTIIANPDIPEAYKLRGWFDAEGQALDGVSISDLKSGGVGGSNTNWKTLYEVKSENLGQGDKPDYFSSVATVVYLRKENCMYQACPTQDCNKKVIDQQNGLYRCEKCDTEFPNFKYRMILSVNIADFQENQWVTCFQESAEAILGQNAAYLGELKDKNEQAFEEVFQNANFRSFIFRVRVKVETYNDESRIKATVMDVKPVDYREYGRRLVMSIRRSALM
Chain of RPA heterotrimer (RPA70/RPA32/RPA14) (Homo sapiens) (P15927 whole entry, chain 2 of 3): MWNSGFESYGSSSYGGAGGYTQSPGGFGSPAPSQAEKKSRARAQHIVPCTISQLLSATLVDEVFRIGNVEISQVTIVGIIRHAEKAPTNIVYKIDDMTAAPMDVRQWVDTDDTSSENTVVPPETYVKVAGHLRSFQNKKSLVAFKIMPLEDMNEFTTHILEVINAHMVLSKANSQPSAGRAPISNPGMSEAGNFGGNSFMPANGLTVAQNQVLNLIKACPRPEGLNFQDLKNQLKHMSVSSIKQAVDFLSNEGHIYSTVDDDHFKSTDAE
Chain of RPA heterotrimer (RPA70/RPA32/RPA14) (Homo sapiens) (P35244 whole entry, chain 3 of 3): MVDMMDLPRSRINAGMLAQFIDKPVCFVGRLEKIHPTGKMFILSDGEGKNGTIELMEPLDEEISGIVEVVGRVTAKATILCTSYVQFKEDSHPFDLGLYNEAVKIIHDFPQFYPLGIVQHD

“TTTTTTTTTTTTTTTTTTTTTTTTTTTTTTTTTTTTTTTTGGTCGGAGTTAGAGTAGGGTCGGAGTTAGAGTAGCCAGTA [S8 (80-mer)]” gave a binding signal (fold vs RPA alone) of 2.

Reference: PMC5389570
